Results taken from US7193044B1, “Compounds and methods for regulating apoptosis, and methods of making and screening for compounds that regulate apoptosis” (Immunogen, Inc., priority 2000, dated 2007).
Entries after “also recorded” stand apart in the source; their conditions may differ.

How the values were obtained:
HeLa cells = experiment: Beta-gal ELISA apoptosis assay in transfected HeLa cells; type: cell-based, human; details: HeLa cells, 24 hours post-transfection
Description: Because BAD Ser155 phosphorylation, like Ser136 phosphorylation, prevents BAD from binding to Bcl-XL (FIG. 1), it was possible that by analogy, Ser155 dephosphorylation promotes cell death. To test this idea, HeLa cells were co-transfected with BAD or various BAD serine mutants and a β-gal reporter plasmid. Twenty-four hours post-transfection, cell viability was analyzed by β-gal ELISA.
To test this idea, HeLa cells were again co-transfected with BAD or various BAD serine mutants and a β-gal reporter plasmid. Forskolin was then added to half of the cultures while the other half was left untreated. Beta-gal ELISAs were performed 24 hours post transfection. […] Thus, phosphorylation of Ser155 rescues cells from BAD-induced apoptosis, while substitution of Ser155 with a nonphosphorylatable residue results in increased cell death and the failure of cells to be protected from induced PKA activity.
Beta-gal ELISA assays were performed using the β-gal ELISA system from Boehringer Mannheim, according to manufacture's instructions. Cells were transfected with BAD (or BAD mutant) and β-gal in a ratio of 5:1. The transfected cells were trypsinized and distributed into 96-well tissue culture plates. Twenty-four hours after transfection, cell extracts were obtained by lysing the cells in lysis buffer. Cell extracts (200 μl) were then added to anti-β-gal-coated microtiter plates (MTP). The MTPs were foil-covered and incubated for one hour at 37° C. Solutions were then decanted and the MTPs were washed, followed by the addition of 200 μl of anti-β-gal-DIG working solution, and incubation for an additional hour as described above. Solutions were again decanted, the MTPs washed and 200 μl of DIG-POD working solution were added. The MTPs were incubated for another hour at 37° C., the solution decanted, and the wells washed. 200 μl of substrate with enhancer were added to each well and incubated at room temperature until color development. The β-gal activity was measured by the absorbance of the sample at […]. Data were based on triplicate wells with standard deviations calculated.

[1] = target: T1, PKA (catalytic subunit from bovine heart) (Bos taurus, UniProt P00517); experiment: In vitro kinase assay, phosphorylation of BAD and BAD mutants by PKA; type: biochemical; details: for in vitro phosphorylation by PKA: purified GST-tagged polypeptides, gamma-32P-ATP, autoradiography
T1 construct: 11 units PKA (catalytic subunit from bovine heart, Calbiochem); purchased Calbiochem; host or cells: bovine heart
Description: The ability of full-length BAD and mutant BAD S155A to bind Bcl-XL was also determined (FIG. 3(c)). Full-length BAD (“WT”) and mutant BAD S155A (“S155A”) were produced by in vitro translation and labeled with ^35S-methionine therein. The labeled proteins were then incubated with PKA (“+”) in the presence of unlabeled ATP or a buffer control (“−”). Following the kinase reactions, aliquots of each sample of the four samples were incubated with either GST or GST-Bcl-XL. The protein complex were captured on glutathione-agarose beads. Proteins bound to the beads (“Bound”) (lower panel) and samples of the reactions collected prior to incubation with the beads (“Total”) (upper panel) were analyzed by SDS-PAGE followed by autoradiography.
The GST-tagged BAD and BAD mutants were then expressed individually in cells and the purified GST-tagged polypeptides incubated with purified PKA, in the presence of ^32P radiolabel. A western blot, probed with anti-BAD antibody, was performed on the incubated GST-tagged BAD and BAD mutants to determine whether PKA could phosphorylate the BAD and/or mutant BAD in vitro. The GST-tagged BAD and BAD mutants phosphorylated by PKA could be detected directly by autoradiography due to the incorporation of ^32P radiolabel when the polypeptides were phosphorylated (FIG. 4, upper panel), whereas the total amount of BAD and mutant BAD present in the in vitro reaction was detected by the anti-BAD antibody probe (FIG. 4, lower panel).
In vitro kinase assays were carried out in 30 μl volumes containing 10 mM HEPES buffer, pH 7.5, 100 mM NaCl, 12 mM MgCl2, 1 mM dithiothreitol, […] γ^32P-ATP ([…], NEN), 11 units PKA (catalytic subunit from bovine heart, Calbiochem), and 1 μg purified GST-BAD. Reactions were incubated for 30 min at 30° C. and terminated by the addition of SDS-PAGE sample buffer. Samples were run on a 4–20% SDS-PAGE gel (Novex), transferred to a nitrocellulose membrane and phosphorylated GST-BAD was visualized by autoradiography. To verify that equal amounts of GST-BAD substrates were used, the nitrocellulose was subjected to western blot analysis with 133 ng/ml anti-BAD antibody (C-20).

B1: BAD S155A: mutant of shorter murine BAD, serine corresponding to Ser155 substituted with alanine; HA- or GST-tagged (protein)
chain: MFQIPEFEPSEQEDASATDRGLGPSLTEDQPGPYLAPGLLGSNIHQQGRAATNSHHGGAGAMETRSRHSSYPAGTEEDEGMEEELSPFRGRSRSAPPNLWAAQRYGRELRRMADEFEGSFKGLPRPKSAGTATQMRQSAGWTRIIQSWWDRNLGKGGSTPSQ
modifications: left off: small tags and cut ends
notes: mutant of shorter murine BAD, serine corresponding to Ser155 substituted with alanine; HA- or GST-tagged
- effect of expressed BAD mutant on cellular survival / cell death (HeLa cells): greatest effect on cellular survival, with a significant increase in cell death compared to the control; also recorded: enhanced apoptotic activity compared with the wild-type mammalian BAD
- reduction of PKA catalyzed 32P-ATP incorporation ([1]; compared to the wild-type mammalian BAD substrate): more than 90%
- in vitro phosphorylation by PKA [1]: low, but detectable level
- in vitro phosphorylation by PKA ([1]; listed as GST-BAD S155A): dramatically reduced the phosphorylation
